Measured values: paper PMC6134094 (mBio, 2018)

Biological target: T1, cleaved Ebola virus (EBOV) glycoprotein GPCL (Ebola virus (Zaire ebolavirus), UniProt Q05320)
T1 construct: copies: 3 + 3
Assay: crystal structure
Conditions: both partners purified

B1: ADI-15878 fragment antigen binding (Fab) (Fab, V domains shown)
VH: QVQLVQSGVTLVQPGGSLRVSCAASGFTFSSYAMSWVRQAPGKGLEWVSAISGLGGSTYYADSVKGRFTISRDNSKNTLYLQMNSLRAEDTAVYYCAKDHRVWAAGYHFDYWGQGALVTVSS
VL: DIVLTQSPSTLSASVGDRVTITCRASQSISSWLAWYQQKPGEAPKLLISDASSLESGVPSRFSGSGSGTEFTLTISSLQPDDFATYYCQQYYSSPTFGGGTKVEIK
notes: also called ADI-15878 Fab
B1: binds.
